# Molecular target: the molecule itself
# Test: AUC; sedimentation velocity, 0.3, 0.6 and 0.9 mg/ml protein in 50 mM Tris-HCl pH 7.5, 293 K, 42,000 rpm; global fit to a monomer-dimer equilibrium model (SEDPHAT); dimer to monomers
row,Protein,Kd [nM]
1,"human ornithine decarboxylase, wild type (enzyme, ornithine decarboxylase (ODC), human; cDNA cloned into pQE30; Written as the protomer; it associates with itself to the dimer; also called ODC) EEFDCHFLDEGFTAKDILDQKINEVSSSDDKDAFYVADLGDILKKHLRWLKALPRVTPFYAVKCNDSKAIVKTLAATGTGFDCASKTEIQLVQSLGVPPERIIYANPCKQVSQIKYAANNGVQMMTFDSEVELMKVARAHPKAKLVLRIATDDSKAVCRLSVKFGATLRTSRLLLERAKELNIDVVGVSFHVGSGCTDPETFVQAISDARCVFDMGAEVGFSMYLLDIGGGFPGSEDVKLKFEEITGVINPALDKYFPSDSGVRIIAEPGRYYVASAFTLAVNIIAKKIVLKEQTGSDDEDESSEQTFMYYVNDGVYGSFNCILYDHAHVKPLLQKRPKPDEKYYSSSIWGPTCDGLDRIVERCDLPEMHVGDWMLFENMGAYTVAAASTFNGFQRPTIYYVMSGPAWQLMQQFQNPDFPP",100 ± 1
2,"human ornithine decarboxylase Y331S/Y389D/R277S/D332E/V322D/D134A (enzyme, ornithine decarboxylase (ODC), human; cDNA cloned into pQE30; also called [ODC_4M]+[V322D/D134A]; sextuple mutant) EEFDCHFLDEGFTAKDILDQKINEVSSSDDKDAFYVADLGDILKKHLRWLKALPRVTPFYAVKCNDSKAIVKTLAATGTGFDCASKTEIQLVQSLGVPPERIIYANPCKQVSQIKYAANNGVQMMTFASEVELMKVARAHPKAKLVLRIATDDSKAVCRLSVKFGATLRTSRLLLERAKELNIDVVGVSFHVGSGCTDPETFVQAISDARCVFDMGAEVGFSMYLLDIGGGFPGSEDVKLKFEEITGVINPALDKYFPSDSGVRIIAEPGSYYVASAFTLAVNIIAKKIVLKEQTGSDDEDESSEQTFMYYVNDGDYGSFNCILSEHAHVKPLLQKRPKPDEKYYSSSIWGPTCDGLDRIVERCDLPEMHVGDWMLFENMGADTVAAASTFNGFQRPTIYYVMSGPAWQLMQQFQNPDFPP",52800 ± 500
3,"human ornithine decarboxylase Y331S/Y389D/R277S/D332E (enzyme, ornithine decarboxylase (ODC), human; cDNA cloned into pQE30; also called ODC_4M) EEFDCHFLDEGFTAKDILDQKINEVSSSDDKDAFYVADLGDILKKHLRWLKALPRVTPFYAVKCNDSKAIVKTLAATGTGFDCASKTEIQLVQSLGVPPERIIYANPCKQVSQIKYAANNGVQMMTFDSEVELMKVARAHPKAKLVLRIATDDSKAVCRLSVKFGATLRTSRLLLERAKELNIDVVGVSFHVGSGCTDPETFVQAISDARCVFDMGAEVGFSMYLLDIGGGFPGSEDVKLKFEEITGVINPALDKYFPSDSGVRIIAEPGSYYVASAFTLAVNIIAKKIVLKEQTGSDDEDESSEQTFMYYVNDGVYGSFNCILSEHAHVKPLLQKRPKPDEKYYSSSIWGPTCDGLDRIVERCDLPEMHVGDWMLFENMGADTVAAASTFNGFQRPTIYYVMSGPAWQLMQQFQNPDFPP",15900 ± 80
4,"human ornithine decarboxylase Y331S/Y389D/R277S/D332E/K169A (enzyme, ornithine decarboxylase (ODC), human; cDNA cloned into pQE30; also called [ODC_4M]+K169A) EEFDCHFLDEGFTAKDILDQKINEVSSSDDKDAFYVADLGDILKKHLRWLKALPRVTPFYAVKCNDSKAIVKTLAATGTGFDCASKTEIQLVQSLGVPPERIIYANPCKQVSQIKYAANNGVQMMTFDSEVELMKVARAHPKAKLVLRIATDDSKAVCRLSVAFGATLRTSRLLLERAKELNIDVVGVSFHVGSGCTDPETFVQAISDARCVFDMGAEVGFSMYLLDIGGGFPGSEDVKLKFEEITGVINPALDKYFPSDSGVRIIAEPGSYYVASAFTLAVNIIAKKIVLKEQTGSDDEDESSEQTFMYYVNDGVYGSFNCILSEHAHVKPLLQKRPKPDEKYYSSSIWGPTCDGLDRIVERCDLPEMHVGDWMLFENMGADTVAAASTFNGFQRPTIYYVMSGPAWQLMQQFQNPDFPP",1490 ± 40
5,"human ornithine decarboxylase Y331S/Y389D/R277S/D332E/V322D (enzyme, ornithine decarboxylase (ODC), human; cDNA cloned into pQE30; also called [ODC_4M]+V322D) EEFDCHFLDEGFTAKDILDQKINEVSSSDDKDAFYVADLGDILKKHLRWLKALPRVTPFYAVKCNDSKAIVKTLAATGTGFDCASKTEIQLVQSLGVPPERIIYANPCKQVSQIKYAANNGVQMMTFDSEVELMKVARAHPKAKLVLRIATDDSKAVCRLSVKFGATLRTSRLLLERAKELNIDVVGVSFHVGSGCTDPETFVQAISDARCVFDMGAEVGFSMYLLDIGGGFPGSEDVKLKFEEITGVINPALDKYFPSDSGVRIIAEPGSYYVASAFTLAVNIIAKKIVLKEQTGSDDEDESSEQTFMYYVNDGDYGSFNCILSEHAHVKPLLQKRPKPDEKYYSSSIWGPTCDGLDRIVERCDLPEMHVGDWMLFENMGADTVAAASTFNGFQRPTIYYVMSGPAWQLMQQFQNPDFPP",25200 ± 30
6,"human ornithine decarboxylase R165E (enzyme, ornithine decarboxylase (ODC), human; cDNA cloned into pQE30) EEFDCHFLDEGFTAKDILDQKINEVSSSDDKDAFYVADLGDILKKHLRWLKALPRVTPFYAVKCNDSKAIVKTLAATGTGFDCASKTEIQLVQSLGVPPERIIYANPCKQVSQIKYAANNGVQMMTFDSEVELMKVARAHPKAKLVLRIATDDSKAVCELSVKFGATLRTSRLLLERAKELNIDVVGVSFHVGSGCTDPETFVQAISDARCVFDMGAEVGFSMYLLDIGGGFPGSEDVKLKFEEITGVINPALDKYFPSDSGVRIIAEPGRYYVASAFTLAVNIIAKKIVLKEQTGSDDEDESSEQTFMYYVNDGVYGSFNCILYDHAHVKPLLQKRPKPDEKYYSSSIWGPTCDGLDRIVERCDLPEMHVGDWMLFENMGAYTVAAASTFNGFQRPTIYYVMSGPAWQLMQQFQNPDFPP",110 ± 1
7,"human ornithine decarboxylase Y331S/Y389D/R277S (enzyme, ornithine decarboxylase (ODC), human; cDNA cloned into pQE30) EEFDCHFLDEGFTAKDILDQKINEVSSSDDKDAFYVADLGDILKKHLRWLKALPRVTPFYAVKCNDSKAIVKTLAATGTGFDCASKTEIQLVQSLGVPPERIIYANPCKQVSQIKYAANNGVQMMTFDSEVELMKVARAHPKAKLVLRIATDDSKAVCRLSVKFGATLRTSRLLLERAKELNIDVVGVSFHVGSGCTDPETFVQAISDARCVFDMGAEVGFSMYLLDIGGGFPGSEDVKLKFEEITGVINPALDKYFPSDSGVRIIAEPGSYYVASAFTLAVNIIAKKIVLKEQTGSDDEDESSEQTFMYYVNDGVYGSFNCILSDHAHVKPLLQKRPKPDEKYYSSSIWGPTCDGLDRIVERCDLPEMHVGDWMLFENMGADTVAAASTFNGFQRPTIYYVMSGPAWQLMQQFQNPDFPP",1030 ± 4
8,"human ornithine decarboxylase Y331S/Y389D/R277S/D332E/D134A (enzyme, ornithine decarboxylase (ODC), human; cDNA cloned into pQE30; also called [ODC_4M]+D134A) EEFDCHFLDEGFTAKDILDQKINEVSSSDDKDAFYVADLGDILKKHLRWLKALPRVTPFYAVKCNDSKAIVKTLAATGTGFDCASKTEIQLVQSLGVPPERIIYANPCKQVSQIKYAANNGVQMMTFASEVELMKVARAHPKAKLVLRIATDDSKAVCRLSVKFGATLRTSRLLLERAKELNIDVVGVSFHVGSGCTDPETFVQAISDARCVFDMGAEVGFSMYLLDIGGGFPGSEDVKLKFEEITGVINPALDKYFPSDSGVRIIAEPGSYYVASAFTLAVNIIAKKIVLKEQTGSDDEDESSEQTFMYYVNDGVYGSFNCILSEHAHVKPLLQKRPKPDEKYYSSSIWGPTCDGLDRIVERCDLPEMHVGDWMLFENMGADTVAAASTFNGFQRPTIYYVMSGPAWQLMQQFQNPDFPP",13300 ± 40
9,"human ornithine decarboxylase Y331S/Y389D (enzyme, ornithine decarboxylase (ODC), human; cDNA cloned into pQE30) EEFDCHFLDEGFTAKDILDQKINEVSSSDDKDAFYVADLGDILKKHLRWLKALPRVTPFYAVKCNDSKAIVKTLAATGTGFDCASKTEIQLVQSLGVPPERIIYANPCKQVSQIKYAANNGVQMMTFDSEVELMKVARAHPKAKLVLRIATDDSKAVCRLSVKFGATLRTSRLLLERAKELNIDVVGVSFHVGSGCTDPETFVQAISDARCVFDMGAEVGFSMYLLDIGGGFPGSEDVKLKFEEITGVINPALDKYFPSDSGVRIIAEPGRYYVASAFTLAVNIIAKKIVLKEQTGSDDEDESSEQTFMYYVNDGVYGSFNCILSDHAHVKPLLQKRPKPDEKYYSSSIWGPTCDGLDRIVERCDLPEMHVGDWMLFENMGADTVAAASTFNGFQRPTIYYVMSGPAWQLMQQFQNPDFPP",160 ± 1
10,"human ornithine decarboxylase Y331S/Y389D/R277S/D332E/K294A (enzyme, ornithine decarboxylase (ODC), human; cDNA cloned into pQE30; also called [ODC_4M]+K294A) EEFDCHFLDEGFTAKDILDQKINEVSSSDDKDAFYVADLGDILKKHLRWLKALPRVTPFYAVKCNDSKAIVKTLAATGTGFDCASKTEIQLVQSLGVPPERIIYANPCKQVSQIKYAANNGVQMMTFDSEVELMKVARAHPKAKLVLRIATDDSKAVCRLSVKFGATLRTSRLLLERAKELNIDVVGVSFHVGSGCTDPETFVQAISDARCVFDMGAEVGFSMYLLDIGGGFPGSEDVKLKFEEITGVINPALDKYFPSDSGVRIIAEPGSYYVASAFTLAVNIIAKAIVLKEQTGSDDEDESSEQTFMYYVNDGVYGSFNCILSEHAHVKPLLQKRPKPDEKYYSSSIWGPTCDGLDRIVERCDLPEMHVGDWMLFENMGADTVAAASTFNGFQRPTIYYVMSGPAWQLMQQFQNPDFPP",260 ± 60
11,"human ornithine decarboxylase Y331S/Y389D/R277S/D332E/R165E (enzyme, ornithine decarboxylase (ODC), human; cDNA cloned into pQE30; also called [ODC_4M]+R165E) EEFDCHFLDEGFTAKDILDQKINEVSSSDDKDAFYVADLGDILKKHLRWLKALPRVTPFYAVKCNDSKAIVKTLAATGTGFDCASKTEIQLVQSLGVPPERIIYANPCKQVSQIKYAANNGVQMMTFDSEVELMKVARAHPKAKLVLRIATDDSKAVCELSVKFGATLRTSRLLLERAKELNIDVVGVSFHVGSGCTDPETFVQAISDARCVFDMGAEVGFSMYLLDIGGGFPGSEDVKLKFEEITGVINPALDKYFPSDSGVRIIAEPGSYYVASAFTLAVNIIAKKIVLKEQTGSDDEDESSEQTFMYYVNDGVYGSFNCILSEHAHVKPLLQKRPKPDEKYYSSSIWGPTCDGLDRIVERCDLPEMHVGDWMLFENMGADTVAAASTFNGFQRPTIYYVMSGPAWQLMQQFQNPDFPP",13500 ± 450
12,"human ornithine decarboxylase D134A (enzyme, ornithine decarboxylase (ODC), human; cDNA cloned into pQE30) EEFDCHFLDEGFTAKDILDQKINEVSSSDDKDAFYVADLGDILKKHLRWLKALPRVTPFYAVKCNDSKAIVKTLAATGTGFDCASKTEIQLVQSLGVPPERIIYANPCKQVSQIKYAANNGVQMMTFASEVELMKVARAHPKAKLVLRIATDDSKAVCRLSVKFGATLRTSRLLLERAKELNIDVVGVSFHVGSGCTDPETFVQAISDARCVFDMGAEVGFSMYLLDIGGGFPGSEDVKLKFEEITGVINPALDKYFPSDSGVRIIAEPGRYYVASAFTLAVNIIAKKIVLKEQTGSDDEDESSEQTFMYYVNDGVYGSFNCILYDHAHVKPLLQKRPKPDEKYYSSSIWGPTCDGLDRIVERCDLPEMHVGDWMLFENMGAYTVAAASTFNGFQRPTIYYVMSGPAWQLMQQFQNPDFPP",120 ± 12
13,"human ornithine decarboxylase Y389D (enzyme, ornithine decarboxylase (ODC), human; cDNA cloned into pQE30) EEFDCHFLDEGFTAKDILDQKINEVSSSDDKDAFYVADLGDILKKHLRWLKALPRVTPFYAVKCNDSKAIVKTLAATGTGFDCASKTEIQLVQSLGVPPERIIYANPCKQVSQIKYAANNGVQMMTFDSEVELMKVARAHPKAKLVLRIATDDSKAVCRLSVKFGATLRTSRLLLERAKELNIDVVGVSFHVGSGCTDPETFVQAISDARCVFDMGAEVGFSMYLLDIGGGFPGSEDVKLKFEEITGVINPALDKYFPSDSGVRIIAEPGRYYVASAFTLAVNIIAKKIVLKEQTGSDDEDESSEQTFMYYVNDGVYGSFNCILYDHAHVKPLLQKRPKPDEKYYSSSIWGPTCDGLDRIVERCDLPEMHVGDWMLFENMGADTVAAASTFNGFQRPTIYYVMSGPAWQLMQQFQNPDFPP",690 ± 5

# Reference: publication PMC4139326, “Functional Roles of the Dimer-Interface Residues in Human Ornithine Decarboxylase” (PLoS ONE, 2014)
